This is an account of results in PMC1934351.

pKd: −log10 of the molar value.

Series [1] deals with L1 repressor CI (native, untagged) (Mycobacteriophage L1). Nature of the series: equilibrium binding. Particulars: data not shown; EMSA in Buffer A (binding buffer composition not given in material) with 10 ug/ml BSA, ~0.1 nM 32P-labeled operator, 20 ul, 25 C for 20 min (also 32, 37, 42 C …). In general terms: Mobility shift assays separate free from complexed probe on a gel.
The target in series [2] is C-terminal domain (CTD) of L1 repressor CI (mycobacteriophage L1). The series is described as follows: cross-linking; 0.1% glutaraldehyde for 2 min after 20 min at 25°C in Buffer A, ~0.5 uM protein, SDS-10% PAGE, silver staining; monomer to dimer.
Series [3] has the same target. The series is described as follows: SEC; analytical HPLC gel filtration (Protein Pak, Waters) in Buffer A minus PMSF; ~20 uM protein loaded; column calibrated with BSA, ovalbumin, carbonic anhydrase, lysozyme; monomer to dimer. In general terms: In gel filtration, larger molecules generally elute earlier.
Series [4] deals with N-terminal histidine-tagged repressor (CI) of temperate mycobacteriophage L1 (mycobacteriophage L1). Nature of the series: cross-linking; 0.1% glutaraldehyde for 2 min after 20 min at 25°C in Buffer A, ~0.5 uM protein, SDS-10% PAGE, silver staining; monomer to dimer.
Series [5] shares this target. The series is described as follows: SEC; analytical HPLC gel filtration (Protein Pak, Waters) in Buffer A minus PMSF; ~20 uM protein loaded; column calibrated with BSA, ovalbumin, carbonic anhydrase, lysozyme; monomer to dimer.
In series [6] the test system is L1 repressor CI (native, untagged) (Mycobacteriophage L1). The series is described as follows: EMSA. Particulars: EMSA in Buffer A (binding buffer composition not given in material) with 10 ug/ml BSA, ~0.1 nM 32P-labeled operator, 20 ul, 25 C for 20 min (also 32, 37, 42 C …); for pKd: 25 C, apparent Kd at 50% saturation.

Sequence of N-terminal histidine-tagged repressor (CI) of temperate mycobacteriophage L1 (Q05286 whole entry): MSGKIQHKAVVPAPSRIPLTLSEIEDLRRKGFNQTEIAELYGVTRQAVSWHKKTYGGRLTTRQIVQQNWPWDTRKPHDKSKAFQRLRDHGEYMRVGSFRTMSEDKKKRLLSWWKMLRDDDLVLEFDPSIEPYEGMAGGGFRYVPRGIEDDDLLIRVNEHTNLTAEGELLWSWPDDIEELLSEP

With 21 bp DNA carrying O64 operator, the binding signal (fold higher affinity than N4) in series [1] is 2.57. For 21 bp DNA carrying OL operator, the binding signal (affinity relative to N3 (1/2.57)) in series [1] was 0.389. Usually stoichiometry N stands for the number of molecules, sites or subunits per partner or assembly. As for “C-terminal domain (CTD) of L1 repressor CI (domain or fragment)”, the stoichiometry N in series [2] and in series [3] was 2 each time. In the case of “N-terminal histidine-tagged repressor (CI) of temperate mycobacteriophage L1”, the stoichiometry N in series [4] and in series [5] was 2 in each case. As a reminder, the pKd is −log10 of the Kd, conventionally taken in molar units. For O64 (~120 bp), in series [6], the pKd is 6.85 and the binding signal (fold decrease of affinity vs 25 C) turned out to be 6. With OL (97 bp), the pKd in series [6] was 6.43.
